1 substance from publication PMC10338323 can be followed below.

For orientation: stoichiometry N means the number of molecules, sites or subunits per partner or assembly.

The target in this experiment is EvdS6 (Micromonospora carbonacea var. aurantiaca). Kind of experiment: crystal structure; EvdS6 with copurified NAD+, ligand-free and TDP-bound states; hanging drop at about 25 °C; two protein chains in the asymmetric unit.

In the case of EvdS6 (enzyme), the stoichiometry N was 2.
